Assay results: article PMC5693285

What was measured:
[1] = system: His-VtrAN-ZIPm (Vibrio parahaemolyticus RIMD2210633?; ZIP from Saccharomyces cerevisiae GCN4); experiment: EMSA; conditions: EMSA: 10 mM Tris-HCl pH 7.5, 100 mM KCl, 1 mM DTT, 1 mM EDTA, 0.2% NP-40, 10% glycerol, 100 ng/ml BSA; 4 nM probe, protein 0-400 nM; 30 min room temperature; 6%
[2] = system: His-VtrAN (Vibrio parahaemolyticus RIMD2210633?); experiment: EMSA; conditions: EMSA: 10 mM Tris-HCl pH 7.5, 100 mM KCl, 1 mM DTT, 1 mM EDTA, 0.2% NP-40, 10% glycerol, 100 ng/ml BSA; 4 nM probe, protein 0-400 nM; 30 min room temperature; 6%

Question: How did the binding [1] turn out when “AGGGGCTATGCCCCTTTTATTTTTAATTCTCAAAGTTATCTTTTGAAGGTAATGGGGTATTTTTGAATAACTACATTGGGGTGTGATTGTCCTCGTTGTTTTTTAGTTTTTTTTAGGTTTTTTTTGCTGCTTTTCACGGTTTTATCATCACTTTATTCCGTGATTTAGCAAAATTCTTTTTAGGAGTTTGAAGTGGTCGTCTTCATTACCACGGCTTTAAGAACAGAGACGTTCTCTTTTAATCACAATAAATAACGAAGAAAAACTGTGAAAAGGGCTCAGCG (double strand) [vtrB upstream region 284 bp]” was run?
Answer: > 400 nM

Question: And the binding [2]?
Answer: > 400 nM
